Source: publication doi:10.1101/2023.07.20.549950

T1: RBM15 RRM1 (UniProt Q96T37 170-252)
T1 sequence: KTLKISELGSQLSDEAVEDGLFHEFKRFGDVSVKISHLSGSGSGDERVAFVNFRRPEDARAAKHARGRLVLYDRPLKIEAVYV

T2: RBM15 RRM3 (UniProt Q96T37 455-529)
T2 sequence: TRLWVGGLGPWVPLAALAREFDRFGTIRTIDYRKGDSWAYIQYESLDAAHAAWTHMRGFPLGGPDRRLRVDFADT

T3: RBM15 RRM12 (UniProt Q96T37 170-451)
T3 sequence: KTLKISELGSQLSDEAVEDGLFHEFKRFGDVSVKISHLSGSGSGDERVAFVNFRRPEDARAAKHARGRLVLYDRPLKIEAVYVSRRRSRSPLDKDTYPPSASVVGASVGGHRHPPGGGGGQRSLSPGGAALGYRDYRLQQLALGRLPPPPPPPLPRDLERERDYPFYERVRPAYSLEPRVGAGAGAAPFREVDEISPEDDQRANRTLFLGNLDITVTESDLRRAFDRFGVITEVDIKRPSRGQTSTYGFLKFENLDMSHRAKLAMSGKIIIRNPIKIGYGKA

T4: RBM15 RRM123 (UniProt Q96T37 170-529)
T4 sequence: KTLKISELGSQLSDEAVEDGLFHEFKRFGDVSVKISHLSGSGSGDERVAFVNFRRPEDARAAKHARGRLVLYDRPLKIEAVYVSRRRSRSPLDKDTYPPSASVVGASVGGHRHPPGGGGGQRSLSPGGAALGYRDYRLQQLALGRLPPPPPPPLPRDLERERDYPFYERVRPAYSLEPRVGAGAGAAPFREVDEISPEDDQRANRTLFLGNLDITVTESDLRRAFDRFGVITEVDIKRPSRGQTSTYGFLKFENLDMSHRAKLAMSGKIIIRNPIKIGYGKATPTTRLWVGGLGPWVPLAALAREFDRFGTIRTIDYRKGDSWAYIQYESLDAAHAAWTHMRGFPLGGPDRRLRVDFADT

T5: RBM15 RRM23 (UniProt Q96T37 374-529)
T5 sequence: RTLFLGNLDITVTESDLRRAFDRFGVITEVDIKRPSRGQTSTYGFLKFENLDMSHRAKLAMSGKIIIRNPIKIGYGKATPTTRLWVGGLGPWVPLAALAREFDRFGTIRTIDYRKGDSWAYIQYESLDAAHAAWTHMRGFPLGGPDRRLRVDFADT


Experiments:
Assay in all cases: filter binding
[1] = target: T1, RBM15 RRM1
[2] = target: T2, RBM15 RRM3
[3] = target: T3, RBM15 RRM12
[4] = target: T4, RBM15 RRM123
[5] = target: T5, RBM15 RRM23

| Binder | Kd [1] | Kd [2] | Kd [3] | Kd [4] | Kd [5] |
| --- | --- | --- | --- | --- | --- |
| GGUUCUUGAAAAGAGGACC (structured_RNA) [FIRRE RRD stem-loop (19nt)] | 370 nM | ~100 nM | 184 nM | ~100 nM | 99 nM |
| GGCCAACACUCUGGCCCAUCGGGGUGACGGCC (structured_RNA) [XIST A-repeat stem-loop (32nt)] | 433 nM | ~100 nM | 71 nM | 79 nM | 50 nM |
